Changes are numbered by the printed parent chain. Names and notes keep the numbering of the source.
T1: human KLB on CHOK1-hKLB cells (human, UniProt Q86Z14 1-1044)
T1 construct: whole, on cells; also called human KLB antigen; β-Klotho
T1 sequence (looked up): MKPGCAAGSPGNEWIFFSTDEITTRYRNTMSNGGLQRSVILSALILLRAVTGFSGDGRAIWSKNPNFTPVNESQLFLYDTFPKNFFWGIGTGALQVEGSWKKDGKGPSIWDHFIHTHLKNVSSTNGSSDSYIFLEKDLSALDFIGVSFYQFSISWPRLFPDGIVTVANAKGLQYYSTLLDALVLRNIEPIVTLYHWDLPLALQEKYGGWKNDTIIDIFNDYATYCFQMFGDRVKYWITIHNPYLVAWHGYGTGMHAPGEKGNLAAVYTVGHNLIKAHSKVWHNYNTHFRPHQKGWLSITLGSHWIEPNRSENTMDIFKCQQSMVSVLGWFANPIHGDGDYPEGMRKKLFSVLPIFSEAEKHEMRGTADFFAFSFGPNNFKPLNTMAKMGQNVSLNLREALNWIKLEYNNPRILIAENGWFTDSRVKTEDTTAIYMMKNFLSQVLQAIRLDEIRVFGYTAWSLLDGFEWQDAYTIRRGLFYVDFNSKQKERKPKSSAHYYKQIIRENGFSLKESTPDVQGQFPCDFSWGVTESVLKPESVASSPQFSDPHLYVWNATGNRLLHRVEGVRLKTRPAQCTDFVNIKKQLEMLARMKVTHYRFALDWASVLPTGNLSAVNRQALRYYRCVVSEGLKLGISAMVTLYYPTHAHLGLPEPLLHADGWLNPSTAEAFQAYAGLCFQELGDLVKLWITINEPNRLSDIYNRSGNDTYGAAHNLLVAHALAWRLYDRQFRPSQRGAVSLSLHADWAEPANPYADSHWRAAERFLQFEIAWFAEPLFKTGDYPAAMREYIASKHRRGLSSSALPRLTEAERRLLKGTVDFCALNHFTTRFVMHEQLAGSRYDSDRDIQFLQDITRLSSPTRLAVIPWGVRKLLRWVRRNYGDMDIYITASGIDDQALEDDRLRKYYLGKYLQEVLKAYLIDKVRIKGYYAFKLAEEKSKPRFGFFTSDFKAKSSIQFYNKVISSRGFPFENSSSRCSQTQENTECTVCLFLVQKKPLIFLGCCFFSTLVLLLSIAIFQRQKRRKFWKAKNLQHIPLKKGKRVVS

B1: hAb18-16 (antibody, human IgG1, kappa, L234A L235A, V domains shown)
VH: EVQLVQSGAEVKKPGASVKVSCKASGYTFTDYAMHWVRQAPGQRLEWMGVISTYSGTTNYNQNFKGRVTITVDKSASTAYMELSSLRSEDTAVYYCARSGPLDYWGQGTTVTVSS
VL: ENVLTQSPDFQSVTPKEKVTITCRASSSVSTSYLHWYQQKPDQSPKLWIYSTSNLASGVPSRFSGSGSGTDYTLTINSLEAEDAATYYCQQYSGYPLTFGQGTKLEIKR
notes: humanized mAb-18: hAb18VH1 + hAb18VL2-10; human IgG1 (L234A, L235A) / kappa constant regions
B2: hAb18-19 (antibody, human IgG1, kappa, L234A L235A, V domains shown)
VH: B1 VH
VL: B1 VL with S28N, T31S
notes: humanized mAb-18: hAb18VH1 + hAb18VL2-13; human IgG1 (L234A, L235A) / kappa constant regions
B3: hAb18-17 (antibody, human IgG1, kappa, L234A L235A, V domains shown)
VH: B1 VH
VL: B1 VL with S30T, T31S
notes: humanized mAb-18: hAb18VH1 + hAb18VL2-11; human IgG1 (L234A, L235A) / kappa constant regions
B4: hAb18-18 (antibody, human IgG1, kappa, L234A L235A, V domains shown)
VH: B1 VH
VL: B1 VL with V29L, T31S
notes: humanized mAb-18: hAb18VH1 + hAb18VL2-12; human IgG1 (L234A, L235A) / kappa constant regions
B5: mAb99-hIgG1 (antibody, V domains shown)
VH: EVQLQQSGAELVRPGSSVKMSCKTSGYTFTNYGINWVKQRPRQGLEWIGYIYIGNGDIEYNAKFKGKATLTSDTSSSTAYMQLSSLTSEDSAIYFCARGRGLGHFDVWGTGTTVTVSS
VL: DVQITQSPSYLAASPGETITINCRASKSISKFLAWFQEKPGKTNKLLIYSGSTLQSGIPSRFSGSGSGTDFTLTISGLEPEDFAMYYCQQHNEYPWTFGGGTKLEIKR
notes: chimeric: murine mAb-99 variable regions on human IgG1 (L234A, L235A) / kappa constant regions; also called chimeric antibody of mAb99
B6: mAb18-hIgG1 (antibody, V domains shown)
VH: QVQLQQSGPELVRPGVSVKISCKGSGYTFTDYAMHWVKQTHAKSLEWIGVISTYSGTTNYNQNFKGKATVTVDKSSSTAYMELARLTSEDSAIYYCARSGPLDYWGQGTSLTVSS
VL: ENVLTQSPAIMSASPGEKVTMTCRASSSVSSSYLHWYQQKSGASPKLWIYSTSNLASGVPERFSGSGSGTSYSLTISSVEAEDAATYYCQQYSGYPLTFGSGTKLEIKR
notes: chimeric: murine mAb-18 variable regions on human IgG1 (L234A, L235A) / kappa constant regions; also called chimeric antibody of mAb18
B7: mAb-99 (antibody, V domains shown)
VH: B5 VH
VL: DVQITQSPSYLAASPGETITINCRASKSISKFLAWFQEKPGKTNKLLIYSGSTLQSGIPSRFSGSGSGTDFTLTISGLEPEDFAMYYCQQHNEYPWTFGGGTKLEIK
notes: murine hybridoma antibody; also called murine antibody mAb-99
B8: mAb-18 (antibody, V domains shown)
VH: B6 VH
VL: ENVLTQSPAIMSASPGEKVTMTCRASSSVSSSYLHWYQQKSGASPKLWIYSTSNLASGVPERFSGSGSGTSYSLTISSVEAEDAATYYCQQYSGYPLTFGSGTKLEIK
notes: murine hybridoma antibody; also called murine antibody mAb-18

These binders were tested against T1, human KLB on CHOK1-hKLB cells (assay: flow cytometry on CHOK1-hKLB cells).
Description: The above heavy chain variable regions were fused to the heavy chain constant region (set forth in SEQ ID NO: 22) and the light chain variable regions were fused to the light chain constant region (set forth in SEQ ID NO: 23) to construct anti-KLB antibodies, and the binding activity of the obtained antibodies for CHOK1-hKLB was detected (see Test Example 2 of the present disclosure for the experimental method).
The binding ability of the antibodies for CHOK1 cell strains CHOK1-hKLB and CHOK1-cynoKLB overexpressing human KLB and monkey KLB (see Example 1 for specific preparation procedure), respectively, was detected by flow cytometry. The specific procedure was as follows: the above cells were cultured in 10% FBS-containing IMDM medium and incubated in an incubator at 37° C. and 5% CO₂ for 2 days. The cells were then added to a cell plate at 1×10⁵ cells per well, centrifuged at 300 g for 5 min, and then washed once with 1% BSA. The antibody diluted in gradient was added to the cell plate at 100 μL per well, and the mixture was incubated at 4° C. for 1 h and washed once with 1% BSA. The diluted (1:400) APC-goat anti-human IgG Fc fluorescent secondary antibody was added at 100 μL per well, and the resulting mixture was incubated at 4° C. for 1 h. The plate was washed three times with 1% BSA, PBS was added at 100 μL per well, and the plate was read.

Row | EC50 [nM] | Binder
1 | 2.4 | B1
2 | 4.1 | B2
3 | 1.8 | B3
4 | 1.7 | B4
5 | 0.97 | B5
6 | 2.16 | B6

What follows are binders tested against T2, human FGFR1c on cells (human, UniProt P11362 22-822) (assay: hybridoma clone screening on recombinant cells).
T2 construct: whole, on cells; also called hFGFR1c; CHOK1-hFGFR1c
T2 sequence (P11362 22-822): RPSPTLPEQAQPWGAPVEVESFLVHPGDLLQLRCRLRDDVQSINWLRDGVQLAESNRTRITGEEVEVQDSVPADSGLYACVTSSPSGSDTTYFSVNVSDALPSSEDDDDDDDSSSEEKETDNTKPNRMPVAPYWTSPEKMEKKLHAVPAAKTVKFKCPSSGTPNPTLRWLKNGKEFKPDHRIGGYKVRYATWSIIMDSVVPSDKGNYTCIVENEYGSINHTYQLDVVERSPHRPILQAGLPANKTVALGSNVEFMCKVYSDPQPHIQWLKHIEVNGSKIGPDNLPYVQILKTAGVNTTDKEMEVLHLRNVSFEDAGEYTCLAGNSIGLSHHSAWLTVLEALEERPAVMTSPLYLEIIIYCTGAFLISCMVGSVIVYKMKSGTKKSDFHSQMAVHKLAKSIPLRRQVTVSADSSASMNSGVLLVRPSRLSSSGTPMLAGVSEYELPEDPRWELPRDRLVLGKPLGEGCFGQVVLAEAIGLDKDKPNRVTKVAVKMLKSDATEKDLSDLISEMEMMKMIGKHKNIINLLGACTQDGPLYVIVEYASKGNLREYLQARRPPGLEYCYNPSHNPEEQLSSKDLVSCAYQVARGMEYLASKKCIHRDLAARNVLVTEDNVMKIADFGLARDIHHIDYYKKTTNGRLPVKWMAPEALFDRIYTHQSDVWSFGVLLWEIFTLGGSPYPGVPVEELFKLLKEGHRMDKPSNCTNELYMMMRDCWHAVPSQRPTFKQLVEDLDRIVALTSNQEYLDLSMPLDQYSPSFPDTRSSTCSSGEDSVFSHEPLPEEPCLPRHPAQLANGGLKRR

Row | binding result | Binder
7 | no binding | B7
8 | no binding | B8

From patent US20240270874A1 (JIANGSU HENGRUI PHARMACEUTICALS, published 2024)
